Like-named read-outs stand apart in the source and are kept apart here. Where no end group is shown, it is not given here.
What was measured:
urokinase (UK) [1] = target: T1, urokinase (UK) (Homo sapiens, UniProt P00749); test: Ki of inhibitors against urokinase, fractional enzyme activity assay (Empie and Laskowski) with chromogenic substrate S-2288; format: biochemical; design: purchased Abbott Pharmaceuticals
Description: Fractional enzyme activities for each inhibitor-UK interaction of the above discussed inhibitors were determined by the assay method of Empie and Laskowski (Empie, M. W. et al., Biochem. 21:2274-2284 (1982)), as adapted from Green and Work (Green, N. M. et al., Biochem. J. 54:347-352 (1953)). The concentration of UK used for these reactions was 35 nM. The reactions were carried out in Buffer C. The concentration of the chromogenic substrate used with UK in these assays (S-2288, KabiGen) was […], which is one tenth of the Km of the substrate for UK. Km was determined by a Michaelis-Menten analysis, using a 100-fold range of substrate concentration in Buffer C, and determined to be 4×10^-4 M. Ki values were calculated as the slope of a plot of [I]o /(1-a) vs. 1/a ("a" represents residual enzyme activity) using a variation of the formulas derived by Henderson (Pratt, C. W. et al., Biochem. 26:2855-2863 (1987)). […] These five mutants include the four detailed above(88, 89, 80, AND 91), and also a mutant with arginine at the P1 site of OM3TKY (P1-Arg). […] "ND" means not determined.
Ki values for the wild-type and mutant inhibitors versus urokinase were also determined by non-linear regression of the following equation: [formula]
The non-linear regression was done using the program Enzfitter, by Robin Leatherbarrow. […] Enzyme and inhibitor concentrations used were determined as mentioned above.

urokinase (UK) [2] = target: T1, urokinase (UK); settings: from Turpeinen et al. (PSTI), Christensen et al. (PAI-2); serpin Ki not functionally comparable to reversible inhibitors; read-out: Ki (nM) against UK, values obtained from the literature; cited from earlier work

Substance	Ki (urokinase (UK) [1]; non-linear regression with Enzfitter, read-out: Ki (nM), Ki VALUES OBTAINED BY NON-LINEAR REGRESSION FOR INHIBITORS AGAINST UK)	inhibitory activity against UK (urokinase (UK) [1]; statement on Table 5)	Ki (urokinase (UK) [2])
P1-Arg: mutant with arginine at the P1 site of OM3TKY (VDCSEYPKPACTREYRPLCGSDNKTYGNKCNFCNAVVESNGTLTLSHFGKC)	1790 ± 415 nM	virtually no inhibitory activity	–
PSTI: native Pancreatic Secretory Trypsin Inhibitor, a Kazal-type inhibitor from humans (DSLGREAKCYNELNGCTKIYDPVCGTDGNTYPNECVLCFENRKRQTSILIQKSGPC; ends and bridges not checked; cysteine pairing not given here; UniProt P00995 24-79, looked up) [reference compound]	–	–	300 nM

From patent US5550213A, “Inhibitors of urokinase plasminogen activator” (Rutgers, The State University of New Jersey, priority 1993, dated 1996)
